Target: CEA (Carcinoembryonic Antigen) (UniProt P06731)
Experiment: competition ELISA on CEA-coated plates; competitor of murine MAK BW 431/26 (5 ng/ml)

Chain of UniProt P06731 (P06731 35-685 limits assumed): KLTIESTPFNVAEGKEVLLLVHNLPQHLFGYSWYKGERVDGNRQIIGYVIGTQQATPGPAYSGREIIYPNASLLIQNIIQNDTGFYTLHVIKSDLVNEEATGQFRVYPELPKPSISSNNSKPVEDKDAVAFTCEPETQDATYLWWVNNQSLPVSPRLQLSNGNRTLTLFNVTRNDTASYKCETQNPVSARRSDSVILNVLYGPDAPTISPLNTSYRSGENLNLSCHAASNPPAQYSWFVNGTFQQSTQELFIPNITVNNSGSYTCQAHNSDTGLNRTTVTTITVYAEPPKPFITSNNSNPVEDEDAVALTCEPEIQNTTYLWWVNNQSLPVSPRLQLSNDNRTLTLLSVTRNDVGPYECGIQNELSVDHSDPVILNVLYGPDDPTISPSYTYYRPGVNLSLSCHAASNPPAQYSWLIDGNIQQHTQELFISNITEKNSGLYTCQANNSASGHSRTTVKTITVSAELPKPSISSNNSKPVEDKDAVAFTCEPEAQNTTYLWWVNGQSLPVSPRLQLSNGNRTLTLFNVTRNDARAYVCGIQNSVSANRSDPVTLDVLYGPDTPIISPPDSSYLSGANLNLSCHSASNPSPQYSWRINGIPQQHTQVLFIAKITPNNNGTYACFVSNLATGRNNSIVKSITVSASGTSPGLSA

molar excess of competitor for 50 % inhibition: 200 molar excess
Substance: humanized MAK BW 431/26 (antibody)

Source: EP0501215B1
